{
  "source": "paper PMC6199243",
  "about": "(Scientific Reports, 2018)",
  "target": "T1, a-subunit of recombinant Enterococcus hirae V-ATPase (Enterococcus hirae, UniProt P43439 1-664)",
  "T1 construct": "a-subunit of Enterococcus hirae V-ATPase (NtpI); In the map it is represented by a T. thermophilus model (PDB 5GAS) and a homology model of its C-terminal half; also called Eh a-subunit; transmembrane a-subunit; source: E. coli, expressed from pTR19-EhV-ATPase, purified as part of the whole r-EhV-ATPase (Ni-NTA, Superdex 200) in 0.05% DDM",
  "T1 sequence (looked up)": "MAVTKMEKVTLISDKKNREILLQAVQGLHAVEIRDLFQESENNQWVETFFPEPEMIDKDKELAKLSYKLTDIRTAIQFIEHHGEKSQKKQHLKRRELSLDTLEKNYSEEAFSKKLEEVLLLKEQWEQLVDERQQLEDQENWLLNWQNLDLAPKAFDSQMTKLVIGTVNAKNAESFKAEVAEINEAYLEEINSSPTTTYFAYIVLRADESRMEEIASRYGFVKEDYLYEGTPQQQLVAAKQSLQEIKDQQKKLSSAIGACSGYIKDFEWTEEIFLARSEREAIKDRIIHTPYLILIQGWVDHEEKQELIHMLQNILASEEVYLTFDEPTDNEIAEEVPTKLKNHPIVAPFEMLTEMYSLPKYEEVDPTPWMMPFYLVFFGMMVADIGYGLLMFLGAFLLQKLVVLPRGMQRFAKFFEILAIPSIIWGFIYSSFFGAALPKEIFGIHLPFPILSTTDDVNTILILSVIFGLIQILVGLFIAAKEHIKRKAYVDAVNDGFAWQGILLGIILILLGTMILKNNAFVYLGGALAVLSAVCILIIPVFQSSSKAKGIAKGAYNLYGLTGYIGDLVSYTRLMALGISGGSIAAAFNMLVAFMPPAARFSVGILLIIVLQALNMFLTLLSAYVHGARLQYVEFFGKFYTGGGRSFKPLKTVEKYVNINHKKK",
  "assay": "cryo-EM structure; Zernike phase plate single-particle cryo-EM of r-EhV-ATPase in 0.05% DDM, 17.3 Å; earlier atomic models and homology models fitted into the map",
  "conditions": "both partners purified",
  "data": [
    {"binder": "EG complex (peripheral stalk) of recombinant Enterococcus hirae V-ATPase (complex, E-subunit of Enterococcus hirae V-ATPase (NtpE); G-subunit of Enterococcus hirae V-ATPase (NtpF); Two EG peripheral stalks stand in the whole enzyme; The models fitted into the map for EG are of T. thermophilus (PDB 3K5B, 3V6I), not of E. hirae; also called peripheral stalks; source: E. coli, expressed from pTR19-EhV-ATPase, purified as part of the whole r-EhV-ATPase (Ni-NTA, Superdex 200) in …) chain 1: MPIDKIITQINETAQLERASFEEMKRKEIDQKFEVKKWQIEADFQKEKASKLEEIERSYRQLRNKQKMQVKQEILNAKQEVLQRLFTEATLQLENEPKEEQLALMKQMIQTLPINGTARLIPGEKSADILTPAVIAEWNEELPFELIREDFTEKAQAGLIIDDAGIQYNFLFSHLIKEIQETMSAEIAKELFD chain 2: MARILTRIKEAEENNQKKEEQVKAELAQYEQLKNNELIDLNKEFQERLTKLMKEKEKNEEEVTEDEQHKLELILEQFRQKVLEIEKTYLEKEEEEIAKKKNLTNEIIERMKQNNGCH", "values": [
      {"measurement": "binding result", "value": "binds"}
    ]}
  ]
}
